Source: paper PMC2270275, “Thermal dependency of RAG1 self-association properties” (BMC Biochemistry, 2008)

Target: the molecule itself
Experiment: SEC-MALS; MALLS-SEC of purified GST-core RAG2 (0.01-0.03 mg), kept at 4°C before SEC; Superdex 200; 25 mM Tris pH 8.0, 150 mM KCl, 2 mM dithiothreitol; 40-200 nM in Peak 2

B1: GST-core RAG2 (domain or fragment, UniProt P21784 1-387, looked up)
chain: MSLQMVTVGHNIALIQPGFSLMNFDGQVFFFGQKGWPKRSCPTGVFHFDIKQNHLKLKPAIFSKDSCYLPPLRYPATCSYKGSIDSDKHQYIIHGGKTPNNELSDKIYIMSVACKNNKKVTFRCTEKDLVGDVPEPRYGHSIDVVYSRGKSMGVLFGGRSYMPSTQRTTEKWNSVADCLPHVFLIDFEFGCATSYILPELQDGLSFHVSIARNDTVYILGGHSLASNIRPANLYRIRVDLPLGTPAVNCTVLPGGISVSSAILTQTNNDEFVIVGGYQLENQKRMVCSLVSLGDNTIEISEMETPDWTSDIKHSKIWFGSNMGNGTIFLGIPGDNKQAMSEAFYFYTLRCSEEDLSEDQKIVSNSQTSTEDPGDSTPFEDSEEFCFS
notes: RAG2 core region; core RAG2 portion printed as 42.6 kDa; Predicted monomer mass 68.9 kDa; The authors put the dimeric state down to the GST moiety, which is known to dimerize; also called core RAG2 fused to glutathione S-transferase; GST-RAG2
B1 was tested, and the “stoichiometry N” value was 2.
